These results are taken from paper PMC4223631 (Developmental cell, 2014).

The assay concerns the target rabbit muscle actin (filaments: ADP-F-actin or ADP•BeFx-F-actin) (rabbit, UniProt P68135 1-377). As to the kind of experiment: co-sedimentation.

B1: cofilin-2 (mouse, recombinant wild type) (natural protein)
chain: MASGVTVNDEVIKVFNDMKVRKSSTQEEIKKRKKAVLFCLSDDKRQIIVEEAKQILVGDIGDTVEDPYTSFVKLLPLNDCRYALYDATYETKESKKEDLVFIFWAPESAPLKSKMIYASSKDAIKKKFTGIKHEWQVNGLDDIKDRSTLGEKLGGSVVVSLEGKPL
In the case of B1, the “KD of a small fraction (~20%) of the cofilin” value was ~1000 nM and the “KD of the majority of the cofilin” value was ~5000 nM.
